B1: Ubiquitin carboxyl-terminal hydrolase 15 (Homo sapiens), Q9Y4E8 (parent)
chain: MAEGGAADLDTQRSDIATLLKTSLRKGDTWYLVDSRWFKQWKKYVGFDSWDKYQMGDQNVYPGPIDNSGLLKDGDAQSLKEHLIDELDYILLPTEGWNKLVSWYTLMEGQEPIARKVVEQGMFVKHCKVEVYLTELKLCENGNMNNVVTRRFSKADTIDTIEKEIRKIFSIPDEKETRLWNKYMSNTFEPLNKPDSTIQDAGLYQGQVLVIEQKNEDGTWPRGPSTPKSPGASNFSTLPKISPSSLSNNYNNMNNRNVKNSNYCLPSYTAYKNYDYSEPGRNNEQPGLCGLSNLGNTCFMNSAIQCLSNTPPLTEYFLNDKYQEELNFDNPLGMRGEIAKSYAELIKQMWSGKFSYVTPRAFKTQVGRFAPQFSGYQQQDCQELLAFLLDGLHEDLNRIRKKPYIQLKDADGRPDKVVAEEAWENHLKRNDSIIVDIFHGLFKSTLVCPECAKISVTFDPFCYLTLPLPMKKERTLEVYLVRMDPLTKPMQYKVVVPKIGNILDLCTALSALSGIPADKMIVTDIYNHRFHRIFAMDENLSSIMERDDIYVFEININRTEDTEHVIIPVCLREKFRHSSYTHHTGSSLFGQPFLMAVPRNNTEDKLYNLLLLRMCRYVKISTETEETEGSLHCCKDQNINGNGPNGIHEEGSPSEMETDEPDDESSQDQELPSENENSQSEDSVGGDNDSENGLCTEDTCKGQLTGHKKRLFTFQFNNLGNTDINYIKDDTRHIRFDDRQLRLDERSFLALDWDPDLKKRYFDENAAEDFEKHESVEYKPPKKPFVKLKDCIELFTTKEKLGAEDPWYCPNCKEHQQATKKLDLWSLPPVLVVHLKRFSYSRYMRDKLDTLVDFPINDLDMSEFLINPNAGPCRYNLIAVSNHYGGMGGGHYTAFAKNKDDGKWYYFDDSSVSTASEDQIVSKAAYVLFYQRQDTFSGTGFFPLDRETKGASAATGIPLESDEDSNDNDNDIENENCMHTN

Variants of: B1
Details: with syvn1_human SYVN1, Q86TM6
Chain of syvn1_human SYVN1, Q86TM6 (Q86TM6 whole entry): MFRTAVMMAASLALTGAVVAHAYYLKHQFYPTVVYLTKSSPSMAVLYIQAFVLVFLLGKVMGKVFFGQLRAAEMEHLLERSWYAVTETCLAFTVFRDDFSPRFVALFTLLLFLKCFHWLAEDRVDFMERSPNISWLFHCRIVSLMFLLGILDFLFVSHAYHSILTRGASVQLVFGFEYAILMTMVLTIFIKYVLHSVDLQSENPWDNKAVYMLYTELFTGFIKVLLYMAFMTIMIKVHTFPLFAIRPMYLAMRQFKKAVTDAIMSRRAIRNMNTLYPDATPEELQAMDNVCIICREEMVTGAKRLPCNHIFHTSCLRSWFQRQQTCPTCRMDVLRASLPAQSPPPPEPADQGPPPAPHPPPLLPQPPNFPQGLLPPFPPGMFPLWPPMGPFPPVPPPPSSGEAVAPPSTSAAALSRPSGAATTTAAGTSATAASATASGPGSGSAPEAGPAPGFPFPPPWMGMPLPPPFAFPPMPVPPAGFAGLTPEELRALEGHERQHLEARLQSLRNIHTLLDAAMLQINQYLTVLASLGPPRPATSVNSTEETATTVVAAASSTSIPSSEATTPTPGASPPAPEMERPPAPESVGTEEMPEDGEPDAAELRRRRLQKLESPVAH

Effect of a mutation on the interaction, with no effect:
K154R
K228R
K21R

— IntAct's records for PubMed 31477895
